Results on two molecules are retold here after US20250011448A1 (STAIDSON BIOPHARMA, published 2025).

Where a chain is given by its changes, count along the chain named.

Experiment [1] concerns the target T1, cynomolgus monkey TNFR2 extracellular domain with C-terminal 10×His tag (cynomolgus monkey, UniProt P20333 23-257 (human entry)).
T1 construct: also called cynoTNFR2-His; His-tag-cynoTNFR2
T1 chain: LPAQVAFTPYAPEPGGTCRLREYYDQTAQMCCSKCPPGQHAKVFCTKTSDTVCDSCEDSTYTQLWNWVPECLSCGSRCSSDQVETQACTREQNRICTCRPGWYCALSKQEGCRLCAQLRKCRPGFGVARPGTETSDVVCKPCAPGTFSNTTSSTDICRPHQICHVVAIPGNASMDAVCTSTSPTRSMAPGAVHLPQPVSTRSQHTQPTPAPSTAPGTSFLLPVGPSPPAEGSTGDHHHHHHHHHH
The experiment can be described thus: ELISA, plate coated with His-tagged TNFR2 ECD, serial dilution of chimeric IgG; ELISA; cynoTNFR2-His coated on plate at 1 µg/mL, bivalent IgG in solution. On the procedure: (§1) TNFR2 binding of purified recombinant chimeric antibodies: The huTNFR2, cynoTNFR2 antigen binding ELISA was performed on the purified recombinant chimeric antibodies. Briefly, 384-well, clear, flat bottom, high binding plates (VWR, cat #29444-096) were coated overnight at 4° C. with 1 μg/mL of huTNFR2 or cynomolgus monkey TNFR2-His in PBS. After removing the coating solution, the plates were blocked by adding blocking buffer and incubated at room temperature for 1 hour. Plates were then washed 3 times with wash buffer. Serial dilution of purified antibodies in PBS was added to individual well followed by incubation at room temperature for 1 hour. Plates were washed 3 times with wash buffer. Then 50 μL/well of goat anti hu Kappa —AP (Southern Biotech, cat #2061-04) at 1:3000 dilution or goat anti human IgG Fc-AP at 1:3000 dilution in ELISA diluent was added, incubated at room temperature for 1 hour, washed 5 times with wash buffer and developed for 30 minutes with 50 μL/well of pNPP substrate. Plates were analyzed with a Bio-TEK at 405 nm. The chimeric TNFR2 antibodies were tested positive for binding to huTNFR2 and cynoTNFR2. The TNFR2 binding EC50 values are shown in Table 6, FIG. 1A (for huTNFR2) and FIG. 1B (for cynoTNFR2).
In general terms: An ELISA detects its analyte on a solid surface through an enzyme-linked reagent.

The target of experiment [2] is T2, human TNFR2 extracellular domain fused to human IgG1 Fc (human, UniProt P20333 23-257).
T2 construct: also called TNFR2-huFc; huTNFR2; not shown: C-terminal human IgG1 Fc
T2 sequence: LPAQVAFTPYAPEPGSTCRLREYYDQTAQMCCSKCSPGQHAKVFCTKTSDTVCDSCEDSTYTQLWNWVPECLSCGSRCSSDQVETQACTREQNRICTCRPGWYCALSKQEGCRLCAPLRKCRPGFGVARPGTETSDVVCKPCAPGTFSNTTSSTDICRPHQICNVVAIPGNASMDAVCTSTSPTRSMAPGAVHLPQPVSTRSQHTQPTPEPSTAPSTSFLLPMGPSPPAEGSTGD
The experiment is described as follows: blocking ELISA: antibody pre-mixed with huTNFR2, binding of huTNFR2 to coated human TNFα read out. On the procedure: 96-well round bottom ELISA plates were coated overnight at 4° C. with 50 μL/well of 0.5 μg/mL human TNFα recombinant protein (R&D system, Cat #210-TA-100) in coating buffer. After removing the coating solution, blocking buffer was added into the plates followed by incubation at room temperature for 1 hour in order to block unspecific binding. During the blocking period, hybridoma antibodies samples were mixed with 0.5 μg/mL TNFR2-huFc at a 1:1 volume ratio and incubated at room temperature for another 1.5 hours. Then 50 μL/well of antigen-antibody mix solution was transferred into TNFα coated wells and incubated at room temperature for 1.5 hours. Plates were then washed 5 times with wash buffer. Then, 50 μL/well of goats anti-human IgG Fc-AP (Southern Biotech, cat #2014-04) at 1:2000 dilution in assay buffer was added, incubated at room temperature for 1 hour, washed 4 times with wash buffer and developed for 30 minutes with 50 μL/well of pNPP substrate. Plates were analyzed with a Synergy HT (Bio-TEK) at 405 nm. Parental hybridomas with the desired human and cynoTNFR2 binding as well as the ability to block human TNFR2 and human TNFα binding were prioritized for subcloning and further characterization. Subcloning was carried out with limited dilution and visual inspection was performed to ensure clonality. Hybridoma subclones were screened with the same binding and blocking assays and selected positive hits were cryopreserved.
TNFR2 blocking by purified recombinant chimeric antibodies: Human TNFR2 blocking ELISA was performed on purified recombinant chimeric antibodies following the same protocol as described above, except that 50 μL/well of serial dilution of purified antibodies (starting at 10 μg/mL, 1:3 dilution) in assay buffer was added into the reaction. The blocking IC₅₀ value represents the antibody concentration that inhibited 50% of huTNFR2 or cynoTNFR2 binding to coated human TNFα or cynomolgus monkey TNFα.

For experiment [3], the target named is T3, human TNFR2 extracellular domain with C-terminal 10×His tag (human, UniProt P20333 23-257).
T3 construct: also called huTNFR2-His; His-tag-huTNFR2
T3 sequence: T1 chain with G16S, P36S, Q117P, H164N, A210E, G216S, V223M
The experiment is described as follows: ELISA, plate coated with His-tagged TNFR2 ECD, serial dilution of chimeric IgG. On the procedure: as §1

Experiment [4] deals with T4, human TNFR2 expressed on cells (Expi293 cells stably expressing huTNFR2) (human, UniProt P20333 23-461).
T4 construct: whole, on cells; Also used here as the target of the Treg assay (native TNFR2 on human primary Treg cells); also called huTNFR2 expressed cells; Expi293-TNFR2 cells
T4 sequence (looked up): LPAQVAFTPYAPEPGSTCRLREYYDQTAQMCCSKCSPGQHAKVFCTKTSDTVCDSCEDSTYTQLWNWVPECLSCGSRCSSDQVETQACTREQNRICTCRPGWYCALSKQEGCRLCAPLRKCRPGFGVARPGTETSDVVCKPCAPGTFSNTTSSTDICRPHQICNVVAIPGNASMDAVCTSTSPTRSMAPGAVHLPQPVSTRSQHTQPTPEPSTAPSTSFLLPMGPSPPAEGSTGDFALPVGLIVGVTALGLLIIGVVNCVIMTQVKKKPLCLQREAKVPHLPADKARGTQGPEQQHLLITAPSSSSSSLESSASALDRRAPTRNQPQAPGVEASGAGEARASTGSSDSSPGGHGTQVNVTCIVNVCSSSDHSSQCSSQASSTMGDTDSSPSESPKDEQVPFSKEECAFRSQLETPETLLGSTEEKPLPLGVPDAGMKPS
The experiment can be described thus: flow cytometry on Expi293 cells stably expressing huTNFR2. The protocol:
(§2) The coding sequence of huTNFR2 (Uniprot, P20333) was cloned into a lentiviral vector and the virus was packaged according to the instruction of the virus packaging kit (Lenti-X™ Packaging Single Shots, Cat #631275, Takada). The Expi293 cells were transduced with the recombinant virus and selected by puromycin. The cell line stably expressing huTNFR2 was incubated with anti-TNFR2 antibodies in PBS with 0.5% BSA, 1 mM EDTA, and 0.1% sodium azide (FACS buffer) for 30 minutes at 4° C. The cells were washed, and then incubated with 10 nM phycoerythrin (PE) conjugated anti-Human Fe Ab (Biolegend, cat #409304) for 20 minutes at 4° C. Cells were washed and then […] by flow cytometry with Attune (ThermoFisher Scientific). Data were analyzed with FlowJo software. Antibody binding is represented as median fluorescence intensity (MFI).
As shown by the results in Table 9 and FIG. 4A, the anti-TNFR2 antibodies, 51B5, 102E4, 85G8.4, 29G3, 11C1, and 15H10 bind to Expi293-TNFR2 cells dose-dependently and potently.
(In flow cytometry, cells or beads pass a laser one at a time.)

Experiment [5] concerns the target T3, human TNFR2 extracellular domain with …. The experiment can be described thus: BLI (Octet RED96), antibody captured on AHC biosensor, His-tagged TNFR2 in solution, 1:1 model. The protocol:
The following kinetic assay was performed using anti-human IgG Fc capture (AHC) biosensors (ForteBio) in kinetics buffer (PBS, 0.1% Tween-20 and 1% bovine serum albumin): (a) antibody (2 μg/mL) for 300 sec, (b) baseline for 120 sec, (c) association with His-tag-huTNFR2 (2.5, 0.5 and 0 μg/mL) and His-tag-cynoTNFR2 (2.5, 0.5 and 0 μg/mL) for 420 sec and (d) dissociation for 1200 sec. Data fitting and analysis was performed with Octet data analysis software 8.0 (ForteBio) using a 1:1 binding model after Savitzky-Golay filtering.
Background: BLI is a label-free optical method that tracks binding on a fibre tip over time.

Experiment [6] shares this target. The experiment is described as follows: BLI (Octet RED96), antibody captured on AHC biosensor, His-tag-huTNFR2 in solution, 1:1 model. The protocol: The following kinetic assay was performed using anti-human IgG Fc capture (AHC) biosensors (ForteBio) in kinetics buffer (PBS, 0.1% Tween-20 and 1% bovine serum albumin): (a) antibody (2 μg/mL) for 300 sec, (b) baseline for 120 sec, (c) association with His-tag-huTNFR2 (2.5, 0.5 and 0 μg/mL) for 420 sec and (d) dissociation for 1200 sec. Data fitting and analysis was performed with Octet data analysis software 8.0 (ForteBio) using a 1:1 binding model after Savitzky-Golay filtering. The dissociation constant (Kd) was calculated as the ratio of Koff/Kon.

Experiment [7] has the same target. The experiment can be described thus: BLI (Octet RED96), AHC capture, His-tag-huTNFR2 in solution; antibody sample after 4 weeks at 40 °C. The protocol:
(§3) The following kinetic assay was performed using anti-human IgG Fc capture (AHC) biosensors (ForteBio) in kinetics buffer (PBS, 0.1% Tween-20 and 1% bovine serum albumin): (a) antibody sample (2 μg/mL) for 300 see, (b) baseline for 120 see, (c) association with His-tag-huTNFR2 (2.5, 0.5 and 0 μg/mL) for 420 sec and (d) dissociation for 1200 sec. Data fitting and analysis was performed with Octet data analysis software 8.0 (ForteBio) using a 1:1 binding model after Savitzky-Golay filtering.
(§4) The binding kinetic data were presented in Table 18, showing that the binding with human-TNFR2 was not affected under the accelerated thermal stressed condition (4 weeks at […]

Experiment [8] shares this target. The experiment can be described thus: BLI (Octet RED96), AHC capture, His-tag-huTNFR2 in solution; antibody sample at week 0 of storage at 40 °C. The protocol: as §3, §4
For experiment [9] the target is unchanged. The experiment is described as follows: BLI (Octet RED96), AHC capture, His-tag-huTNFR2 in solution; antibody sample after 2 weeks at 40 °C. The protocol:
as §3

For experiment [10], the target named is T4, human TNFR2 expressed on cells (Expi293 …). The experiment can be described thus: flow cytometry on Expi293 cells stably expressing huTNFR2, y axis TNFR2 binding (MFI). On the procedure: as §2
FACS based binding and blocking assays of humanized antibodies were performed as described above.

B1: 102E4 chimeric anti-TNFR2 antibody (antibody, V domains shown)
VH: EVLLQQSGAELVRPGASVKLSCTASGFNIKDDFIHWVQQRPEQGLEWIGRINPSNANTEYAPKFQDKATITTDTSSNTAYLQLSSLTSEDTAVYYCTRNDGYYDGLFYWGQGTTLTVSS
VL: DIVMTQSHKFMSSSVGDRVSITCKASQDVGTAVAWYQQKPGQSPKLLIYWASTRHTGVPDRFTGSGSGTDFTLTISNVQSEDLADYFCQQYSSYPFTFGSGTKLEIK
notes: Chimeric: mouse variable domains with human constant regions, made as recombinant IgG1
Molecule B1 returned an EC50 in experiment [1] of 0.338 nM. Further, in [2], the half-maximal inhibitory concentration (IC50) came to 1.13 nM. Besides, in experiment [3], the EC50 came to 0.04 nM. For the same molecule, the concentration giving a half-maximal response (EC50) in experiment [4] was determined as 0.819 nM. In experiment [5], this molecule had a Kd of 1.59 nM, a koff of 0.000696 s⁻¹ and a kon of 439000 M⁻¹ s⁻¹.

B2: SB1901-72 humanized anti-TNFR2 antibody (antibody, V domains shown)
VH: QVQLVQSGAEVKKPGASVKVSCKASGYTFTDDYIDWVRQATGQGLEWIGEIYPGSGNTYYNEKFKGRVTMTRDKSISTAYMELSSLRSEDTAVYYCARSQVYGKIAMDHWGQGTLVTVSS
VL: DIVMTQSPDSLAVSLGERATINCRASESVDNSGNSFMHWYQQKPGQPPKLLIYRASNLESGVPDRFSGSGSRTDFTLTISSLQAEDVAVYYCQQSKEDPYTFGQGTKVEIK
On to B2, for which the Kd in experiment [6] was 1.11 nM; in experiment [7], 1.06 nM; in experiment [8], 1.68 nM; in experiment [9], 1.35 nM. In addition, the off-rate (koff) was determined as 0.000456 s⁻¹ in experiment [6], 0.000527 s⁻¹ in experiment [7], 0.000495 s⁻¹ in experiment [8] and 0.000471 s⁻¹ in [9]. Besides, the kon in [6] came to 412000 M⁻¹ s⁻¹; in experiment [7] it was 497000 M⁻¹ s⁻¹; in experiment [8], 295000 M⁻¹ s⁻¹; in experiment [9], 348000 M⁻¹ s⁻¹. Besides, the “EC50 (read off the curve)” value in [10] is around 0.6 nM.

For orientation: EC50 means the concentration giving half of the maximal effect. One may read the IC50 as the concentration needed to halve the response being measured. The term Kd denotes a measure of binding affinity in units of concentration. The koff is a measure of how fast the partners let go of each other. As a reminder, the kon is a measure of how fast the partners come together. The term EC50 (read off the curve) denotes the concentration at which the effect is half-maximal.
